{"source": "patent US7271245B2", "about": "“Methods and compositions for inhibition of metastasis” (The Scripps Research Institute, priority 2004, dated 2007)", "molecular_target": "T1, activated integrin αvβ3 (Homo sapiens, UniProt P05106+P06756)", "T1 construct": "endogenous in cells; host or cells: MDA-MB 435 variants (Parent Combo, Bone, Lung) and patient blood-derived BMS cells; also β3-negative cells re-transfected with β3WT or β3D723R cDNA", "T1 sequence (P06756 31-889 limits assumed)": "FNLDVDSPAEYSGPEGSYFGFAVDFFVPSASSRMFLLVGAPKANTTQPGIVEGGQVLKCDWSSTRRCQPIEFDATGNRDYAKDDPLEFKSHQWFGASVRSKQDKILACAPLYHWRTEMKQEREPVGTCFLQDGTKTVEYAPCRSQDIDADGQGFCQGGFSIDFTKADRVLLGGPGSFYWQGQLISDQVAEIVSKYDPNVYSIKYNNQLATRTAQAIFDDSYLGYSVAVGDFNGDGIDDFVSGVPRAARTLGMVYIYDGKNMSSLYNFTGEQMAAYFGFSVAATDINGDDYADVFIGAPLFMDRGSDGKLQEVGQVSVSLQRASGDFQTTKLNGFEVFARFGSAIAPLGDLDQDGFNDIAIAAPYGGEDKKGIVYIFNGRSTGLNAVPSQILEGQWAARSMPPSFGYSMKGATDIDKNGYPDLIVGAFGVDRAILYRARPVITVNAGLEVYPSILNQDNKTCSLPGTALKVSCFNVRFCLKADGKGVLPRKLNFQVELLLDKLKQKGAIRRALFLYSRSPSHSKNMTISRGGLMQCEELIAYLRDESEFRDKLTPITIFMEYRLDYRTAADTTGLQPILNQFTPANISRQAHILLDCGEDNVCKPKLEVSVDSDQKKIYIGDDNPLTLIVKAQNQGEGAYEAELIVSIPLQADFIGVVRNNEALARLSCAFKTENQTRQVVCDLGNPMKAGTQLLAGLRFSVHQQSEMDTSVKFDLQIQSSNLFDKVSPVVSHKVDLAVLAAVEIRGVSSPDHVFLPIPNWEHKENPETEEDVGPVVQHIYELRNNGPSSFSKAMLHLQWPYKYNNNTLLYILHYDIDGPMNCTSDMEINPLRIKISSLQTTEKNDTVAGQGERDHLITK", "T1 sequence (P06756 891-1048 limits assumed)": "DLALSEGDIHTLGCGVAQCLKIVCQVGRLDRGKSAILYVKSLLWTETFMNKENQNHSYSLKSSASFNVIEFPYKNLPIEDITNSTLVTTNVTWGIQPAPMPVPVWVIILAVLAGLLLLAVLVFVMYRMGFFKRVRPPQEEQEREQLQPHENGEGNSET", "T1 sequence (P05106 27-788)": "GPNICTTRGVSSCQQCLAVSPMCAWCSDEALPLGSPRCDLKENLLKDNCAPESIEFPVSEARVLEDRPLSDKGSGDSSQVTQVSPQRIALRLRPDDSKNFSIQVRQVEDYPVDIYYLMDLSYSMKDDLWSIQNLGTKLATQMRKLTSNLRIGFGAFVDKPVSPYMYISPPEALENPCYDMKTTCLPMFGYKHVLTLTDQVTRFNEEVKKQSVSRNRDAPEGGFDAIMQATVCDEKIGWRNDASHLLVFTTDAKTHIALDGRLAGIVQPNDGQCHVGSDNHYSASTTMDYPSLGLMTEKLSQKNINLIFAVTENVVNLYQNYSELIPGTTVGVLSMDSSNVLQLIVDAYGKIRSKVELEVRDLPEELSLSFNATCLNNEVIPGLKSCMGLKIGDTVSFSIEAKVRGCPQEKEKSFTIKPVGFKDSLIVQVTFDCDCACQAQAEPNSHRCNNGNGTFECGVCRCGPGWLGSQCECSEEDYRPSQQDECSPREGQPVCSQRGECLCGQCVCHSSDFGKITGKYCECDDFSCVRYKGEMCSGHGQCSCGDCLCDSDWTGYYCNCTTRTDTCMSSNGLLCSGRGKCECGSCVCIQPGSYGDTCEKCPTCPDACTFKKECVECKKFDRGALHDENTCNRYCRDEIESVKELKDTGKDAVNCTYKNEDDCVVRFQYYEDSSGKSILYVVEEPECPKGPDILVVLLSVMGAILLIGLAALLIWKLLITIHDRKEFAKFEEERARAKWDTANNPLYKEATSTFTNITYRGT", "test": "Flow cytometry, scFv binding to MDA-MB 435 variants and patient metastatic breast cancer cells", "procedure": "FIGS. 1A, 1B, 1C. Patient derived scFvs Bc-12 and Bc-15 recognize tumor cell integrin αvβ3 in a cation and activation dependent manner. Flow cytometric analyses in TBS with or without 1 mM Ca^2+, 1 mM Mg^2+, or 0.2 mM Mn^2+ as indicated. Binding of soluble scFv detected after incubation with anti-Flag M2 murine mAb followed by FITC-anti mouse F(ab′)2. (A) scFv binding to human melanoma cells (M21: αvβ3 plus other αv integrins) (M21-LIIb: αIIbβ3, no αv integrins) or lung adenocarcinoma cells (UCLA-P3: αv integrins, no β3 integrin). (B) scFv binding to M21 melanoma cells. (C) scFv binding to variants of MDA-MB 435 human breast cancer cells that lack (β^3−) or express αvβ3 either in a non-activated (β3WT, ParentCo) or activated form (β3D723R, Bone, Lung, and BMS metastatic cancer cells isolated from breast cancer patient blood).\nFIGS. 2A, 2B, 2C, 2D. Translation of scFv DNA sequence analyses. (A) Consensus amino acid sequence (SEQ ID NO: 9) of Bc-12 (SEQ ID NO: 7) and Bc-15 (SEQ ID NO: 8) (specific for activated αvβ3) compared to Bc-20 (specific for αv) (SEQ ID NO: 10). (B) scFv binding to BMS human breast cancer cells by flow cytometry, indicating loss of Bc-12 and Bc-15 binding when CDR-H3 RGD is mutated to RGE (Mut-12 and Mut-15). […] (C) cDNA sequences for scFv Bc-12 (SEQ ID NO: 1) and scFv Bc-15 (SEQ ID NO: 3). The cDNA encoding scFv Bc-12 has an ATCC accession number PTA-6303, date of deposit: Nov. 12, 2004. The cDNA encoding scFv Bc-15 has an ATCC accession number PTA-6304, date of deposit: Nov. 12, 2004. (D) cDNA sequences for scFv Mut-12 (SEQ ID NO: 5) and scFv Mut-15 (SEQ ID NO: 6). scFv Mut-12 is the RGE containing mutant version of scFv Bc-12. scFv Mut-15 is the RGE containing mutant version of scFv Bc-15.\nFlow cytometry. scFv binding to human tumor cells was analyzed by flow cytometry, initially with cloned scFv phage and then with purified scFv protein. Per sample, 2×10^5 tumor cells were blocked with goat serum and incubated either with scFv phage (2-5×10^10) (1 h at RT) followed by mouse anti-M13 mAb (Serotec) (30 min on ice) and goat FITC-anti mouse (Pierce) (30 min on ice), or with purified scFv (1.25 to 40 μg/ml, routinely 10 to 15 μg/ml) (45 min on ice), followed by mouse anti-FLAG mAb M2 (Sigma) (30 min on ice) and goat FITC-anti mouse. Binding/washing buffer was TBS with or without divalent cations (1 mM Ca^2+, 1 mM Mg^2+, 0.2 mM Mn^2+). Alternatively, tumor cells were washed in 10 ml of plasma (prepared freshly from human blood anticoagulated with 50 nM D-Phe-D-Pro-D-arginyl chloromethyl ketone, PPACK, Felding-Habermann et al., J. Biol. Chem. 271: 5892-5900, 1996), resuspended in plasma and then incubated sequentially, without washing, with purified scFv (45 min on ice), followed by anti-FLAG M2 (30 min on ice) and FITC-anti mouse (30 min on ice). All samples were counter stained with propidium iodide (PI) and analyzed on a Becton-Dickinson FACScan, with live gate set to exclude PI positive cells.\nTo test this further, the effects of cation combinations on Bc-12 and Bc-15 binding were examined. […] Smith, Methods Cell Biol. 69: 247-259, 2002; Hughes et al., J. Biol. Chem. 271: 6571-6574, 1996. To confirm that scFv Bc-12 and Bc-15 selectively recognize αvβ3 in its activated form, binding of these antibodies to in vitro generated and in vivo selected variants of the MDA-MB 435 breast cancer cell model was tested. […] In contrast, Bc-12 and Bc-15 were able to bind an MDA-MB 435 variant expressing constitutively activated mutant αvβ3D723R, without exogenous stimulation with Mn^2+. […] Importantly, scFvs Bc-12 and Bc-15 recognized in vivo selected MDA-MB 435 variants from bone and lung metastases, as well as metastatic cells isolated from breast cancer patient blood samples (FIG. 1C). These cells express αvβ3 in a constitutively activated form. Felding-Habermann et al., Proc. Natl. Acad. Sci. U.S.A 98: 1853-1858, 2001; Rolli et al., Proc. Natl. Acad. Sci. U.S.A 100: 9482-9487, 2003.", "data": [{"molecule": "Bc-12: patient derived human scFv antibody against activated αvβ3 with RGD motif in CDR-H3; cDNA ATCC PTA-6303 (protein) scFv: MAQVQLVQSGAEVKKPGASVKVSCKASGYTFSNYGITWVRQAPGQGLEWMGWINNGNTHYAQKFQGRVTMTTDTSTSTAYMELRSLRSDDTAVYYCARDPRGDDEPYWGQGTLVTVSSGGGGSGGGGSGGGGSEIVLTQSPLSLPVTLGQPASISCRSSQNLVYSDGNTYLSWFQQRPGQSPRRLIYKVSNRDSGVPDRFSGSGSGTDFTLKISRVEAEDIGVYYCMQGTHWPPRTFGQGTKVEIKRGLGGLVDYKDDDDK", "values": [{"measurement": "recognition of in vivo selected MDA-MB 435 variants from bone and lung metastases", "setting": "constitutively activated αvβ3", "value": "recognized"}, {"measurement": "recognition of metastatic cells isolated from breast cancer patient blood samples", "setting": "constitutively activated αvβ3", "value": "recognized"}, {"measurement": "binding to MDA-MB 435 Parent Combo cells", "setting": "non-activated αvβ3", "value": "same Mn^2+ dependence"}, {"measurement": "binding to β3 wild type expressing MDA-MB 435 cells", "setting": "β3WT, non-activated αvβ3, without Mn^2+", "value": "failed to bind"}, {"measurement": "binding to β3 wild type expressing MDA-MB 435 cells with Mn2+", "setting": "β3WT, with Mn^2+", "value": "recognized when activated with Mn^2+"}]}, {"molecule": "Mut-12: RGE containing mutant version of scFv Bc-12 (protein) MAQVQLVQSGAEVKKPGASVKVSCKASGYTFSNYGITWVRQAPGQGLEWMGWINNGNTHYAQKFQGRVTMTTDTSTSTAYMELRSLRSDDTAVYYCARDPRGEDEPYWGQGTLVTVSSGGGGSGGGGSGGGGSEIVLTQSPLSLPVTLGQPASISCRSSQNLVYSDGNTYLSWFQQRPGQSPRRLIYKVSNRDSGVPDRFSGSGSGTDFTLKISRVEAEDIGVYYCMQGTHWPPRTFGQGTKVEIKRGLGGLVDYKDDDDK", "values": [{"measurement": "binding of RGE mutated scFv to human breast cancer cells", "setting": "BMS cells, compared with parent RGD scFv", "value": "strongly reduced"}]}]}
